The results in this text go back to the supplement of paper PMC10567573.

± gives the standard deviation.

This data set can be described thus: protein stability index of a GFP-peptide fusion (GPS, HEK-293T) (PSI 1-6); higher = more stable.
Where [1] appears, read: treatment: DMSO, c terminus: a fixed tail appended.
Setting [2] is: treatment: MLN4924 1 uM, 8 h, c terminus: a fixed tail appended.
Setting [3] is: treatment: DMSO, c terminus: native.
[4] abbreviates: treatment: MLN4924 1 uM, 8 h, c terminus: native.
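Note: 24-mer peptide tiles fused after GFP, lentivirally expressed, FACS-sorted into six equal bins by GFP/DsRed ratio, decoded by Illumina sequencing, PSI is the read-weighted mean bin number.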

As to FAYYKLNDVRQAARSAASYMLFDP [P3H4], the protein stability index reads like this: under setting [1], 2.12 ± 0.22; under setting [2], 2.14 ± 0.16.

Turning to FCIPEHISPKARCLIRSLLRREPS [TRIB1], the protein stability index is, setting by setting: under setting [1], 2.34 ± 0.47; under setting [2], 2.03 ± 0.32.

As for FDPKTKRILTLQKANSWFNCRKN [MMP1], the protein stability index is, setting by setting: under setting [3], 2.84 ± 0.41; under setting [4], 2.78 ± 0.25.

On to FGATTNYGKDIVKACSLLDVAVHM [ZBED1], for which the protein stability index reads like this: under setting [1], 2.17 ± 0.37; under setting [2], 2.1 ± 0.34.

Regarding FGWETKIKAWMDRYEEANNNQYSE [KMT2E], the protein stability index is 3.1 ± 0.18 under setting [1] and 3.58 ± 0.13 under setting [2].

As to FIICIVIAILLYKSKPDRKRAESD [PTPRD], the protein stability index by setting is: under setting [1], 2.96 ± 0.72; under setting [2], 2.97 ± 0.043.

On to FKKVLDLNPGFQDATLSLKQTILD [TTC32], for which the protein stability index turned out to be 2.7 ± 0.24 under setting [1] and 2.86 ± 0.2 under setting [2].

In the case of FKLKESCVRRRYSDFEWLKNELER [SNX12], the protein stability index by setting is: under setting [1], 2.33 ± 0.21; under setting [2], 2.59 ± 0.26.

In the case of FKLTNKNSDRMTHCGVLEFVADEG [UFD1], the protein stability index by setting is: under setting [1], 3.32 ± 0.18; under setting [2], 3.27 ± 0.31.

On to FLADEEFDVVVCDQVSACIPVFRL [ALG2], for which the protein stability index by setting is: under setting [1], 2.3 ± 0.43; under setting [2], 2.34 ± 0.47.

Consider FLLIVTLCVILYKKVHKGTVPKND [GLT8D2], for which the protein stability index was determined as 2.59 ± 0.8 under setting [1] and 2.3 ± 0.59 under setting [2].

Take FLPGYVGGIQEGAVTPAGVVNKYQ [DHCR7]: the protein stability index was 3.42 ± 0.21 under setting [1] and 3.45 ± 0.24 under setting [2].

As for FLPLNSAQTLHHKSCYNGRFQLLY [DNAAF3], the protein stability index under setting [1] is 2.54 ± 0.32 and the protein stability index under setting [2] was 2.38 ± 0.36.

As to FLQKSSVGITVLNLCALSVDRYRA [EDNRA], the protein stability index under setting [1] is 2.69 ± 0.54 and the protein stability index under setting [2] turned out to be 2.75 ± 0.54.

As to FLSGMEAAPRTLAAHPPLPLLPPA [TBX6], the protein stability index runs as follows: under setting [1], 2.95 ± 0.41; under setting [2], 3.15 ± 0.26.

FLVSAVAHEYIFCFVLGFFYPVML [SOAT2]: the protein stability index runs as follows: under setting [1], 3.25 ± 0.35; under setting [2], 3.3 ± 0.44.

Consider FMLLLIFFAFLHCWLNAFAEMLRF [SOAT2], for which the protein stability index runs as follows: under setting [1], 3.07 ± 0.18; under setting [2], 2.88 ± 0.57.

With FMLLTQARLFDEPQLASLCLDTID [BTBD1], the protein stability index is 2.29 ± 0.52 under setting [1] and 2.34 ± 0.48 under setting [2].

Turning to FMVVDLLLGGDLRYHLQQNVHFKE [STK32A], the protein stability index worked out at 2.8 ± 0.66 under setting [1] and 3.09 ± 0.78 under setting [2].

For FNPEVAKYLKVPQDPLKFYKKIYF [IQUB], the protein stability index stood at 2.12 ± 0.36 under setting [1] and 2.24 ± 0.043 under setting [2].

On to FPYEYSYGLQGGMAFLDKRLQVKE [ATL3], for which the protein stability index is, setting by setting: under setting [1], 2.53 ± 0.1; under setting [2], 2.69 ± 0.12.

As for FQEAAGPREALSRLQELCHGWLRP [ZNF263], the protein stability index runs as follows: under setting [1], 2.66 ± 0.4; under setting [2], 2.67 ± 0.35.

For the sequence FQFTDWPEQGVPKSGEGFIDFIGQ [PTPRD], the protein stability index turned out to be 2.68 ± 0.22 under setting [1] and 2.84 ± 0.31 under setting [2].

On to FQILLLSDPSTIEASNFQMDRKTR [PNLIPRP1], for which the protein stability index turned out to be 2.03 ± 0.43 under setting [1] and 2.42 ± 0.28 under setting [2].

Take FRADQRSGPRQLLTLYNPTGTALR [MOSPD3]: the protein stability index under setting [1] came to 3.2 ± 0.22 and the protein stability index under setting [2] is 3.39 ± 0.35.

Take FRDATSAPLRKLSVDLIKTYKHIN [DYRK1B]: the protein stability index runs as follows: under setting [1], 3.36 ± 0.17; under setting [2], 3.39 ± 0.27.

Regarding FRKVKQMHLNFMDEKDRIITAFYN [DNAJC4], the protein stability index worked out at 2.26 ± 0.2 under setting [1] and 2.41 ± 0.28 under setting [2].

FRLETLAGLRSRRLKQPKAFCLRD [MIR22HG]: the protein stability index is, setting by setting: under setting [1], 2.52 ± 0.28; under setting [2], 2.46 ± 0.29.

On to FRYLQGMLEAGEGGDWPGPGGPRN [PDLIM4], for which the protein stability index stood at 2.76 ± 0.12 under setting [1] and 3.64 ± 0.49 under setting [2].

Turning to FSDSSMDHFQKFLPTVGGQLGTAG [MYOZ1], the protein stability index reads like this: under setting [1], 2.78 ± 0.31; under setting [2], 3.23 ± 0.34.

In the case of FSTWNLDHIIEKKRTIIPTLVEAI [DFFB], the protein stability index came out at 2.44 ± 0.45 under setting [1] and 2.55 ± 0.34 under setting [2].

As for FTNDKIINLPVEEFNELLSKYQLS [NFE2L1], the protein stability index by setting is: under setting [1], 2.85 ± 0.28; under setting [2], 2.76 ± 0.16.

Consider FTTNKCKGFGFVTMTNYDEAAMAI [ELAVL3], for which the protein stability index runs as follows: under setting [1], 2.49 ± 0.65; under setting [2], 2.51 ± 0.14.

For the sequence GAAESPYSHLGGIDYKTTTILLDG [RAB40A], the protein stability index by setting is: under setting [1], 3.61 ± 0.4; under setting [2], 3.57 ± 0.17.

For the sequence GALMEVMQKRSKAIHSSDEDEDED [WASL], the protein stability index was determined as 5.49 ± 0.19 under setting [1] and 5.41 ± 0.17 under setting [2].

For the sequence GANVKPRNSTPPSLARNPAPGVLT [ZC2HC1A], the protein stability index stood at 4.24 ± 0.23 under setting [1] and 4.16 ± 0.5 under setting [2].

Regarding GASTFKEEPQTVPEARSRDATPPV [JUNB], the protein stability index turned out to be 5.34 ± 0.19 under setting [1] and 5.32 ± 0.15 under setting [2].

As for GAVYADSGNFERCIRLWKYALDMQ [FEM1A], the protein stability index is, setting by setting: under setting [1], 2.38 ± 0.14; under setting [2], 2.24 ± 0.38.

Consider GDVPPSMSGSCAVCVDRVLYLFGG [KLHDC2], for which the protein stability index is 2.74 ± 0.79 under setting [1] and 2.47 ± 0.55 under setting [2].

GEEQSQYMHVGSCQHLSSSAEELR [KCNA3]: the protein stability index is, setting by setting: under setting [1], 4.83 ± 0.25; under setting [2], 4.52 ± 0.2.

As for GEGEPGQGEGPEAGDAEVCPTPAR [NOP53], the protein stability index runs as follows: under setting [1], 5.71 ± 0.2; under setting [2], 5.67 ± 0.13.

Take GEKPYKCTHCSKSFRQRAGLIMHQ [ZNF449]: the protein stability index is 3.59 ± 0.46 under setting [1] and 3.75 ± 0.27 under setting [2].

As to GFLQALSLAVDKQFEERKKLAAYI [TRIP13], the protein stability index under setting [1] was determined as 3.35 ± 0.22 and the protein stability index under setting [2] amounted to 2.54 ± 0.39.

GGFGGGFAGGFVDFGACDGGLLTG [KRT13]: the protein stability index worked out at 2.71 ± 0.084 under setting [1] and 3.12 ± 0.25 under setting [2].

On to GGGDISVKELGTVMRMLGQTPTKE [TNNC2], for which the protein stability index was 4.04 ± 0.05 under setting [1] and 3.64 ± 0.83 under setting [2].

Take GGGGSRSISASSARFVSSGSGGGY [KRT15]: the protein stability index was 4.23 ± 0.29 under setting [1] and 4.13 ± 0.3 under setting [2].

As to GGGTPSLASPHTVAAVLEAVAQTA [RSAD1], the protein stability index is, setting by setting: under setting [1], 3.46 ± 0.52; under setting [2], 3.54 ± 0.3.

As to GGPPAGPGGVYAGPEPPPVYTNLS [JUNB], the protein stability index under setting [1] was 4.15 ± 0.12 and the protein stability index under setting [2] came out at 4.56 ± 0.099.

In turn, GGSSGQVTSNGSIGRDPPAETQPQ [CLPTM1] showed a protein stability index under setting [1] of 5.47 ± 0.24 and a protein stability index under setting [2] of 5.42 ± 0.21.

Regarding GGTDPHGYHQVPGSAAPGSPLAAD [FOXJ1], the protein stability index was found to be 5.11 ± 0.099 under setting [1] and 5.234 ± 0.051 under setting [2].

Turning to GGTEEKSSLLMSCLACDTWAVIL [RPAIN], the protein stability index by setting is: under setting [3], 2.7 ± 0.86; under setting [4], 2.4 ± 0.84.

As for GHGAEQAAAFPTEDSRTSKESMSE [EHMT1], the protein stability index is, setting by setting: under setting [1], 5.69 ± 0.2; under setting [2], 5.19 ± 0.62.

Turning to GHLEVVRYLVGEHQADLEVANRHG [FEM1A], the protein stability index is, setting by setting: under setting [1], 3.4 ± 0.48; under setting [2], 3.24 ± 0.41.

On to GHSSSRDDYPSRGYSDRDGYGRDR [RBMX], for which the protein stability index is 4.87 ± 0.18 under setting [1] and 4.88 ± 0.16 under setting [2].

On to GHVEVARLLLDSGAQVNMPADSFE [ANKRD17], for which the protein stability index is 3.88 ± 0.091 under setting [1] and 3.83 ± 0.24 under setting [2].

Regarding GIAHKIEAGNEFKNIFGTPEFVAP [DAPK3], the protein stability index is, setting by setting: under setting [1], 3.44 ± 0.61; under setting [2], 3.64 ± 0.39.

In turn, GILEHVDSASPVEDTSNDESSILG [M1AP] returned a protein stability index under setting [1] of 5.56 ± 0.26 and a protein stability index under setting [2] of 5.48 ± 0.4.

On to GKGRTASPINSPARGTPSPKRMPS [FSD1], for which the protein stability index under setting [1] was determined as 5.13 ± 0.25 and the protein stability index under setting [2] came to 5.05 ± 0.32.

With GKKDVSHSSPVDLKIPQVRGMDLS [LCOR], the protein stability index was determined as 4.32 ± 0.31 under setting [1] and 4.24 ± 0.36 under setting [2].

For GKNPDVDTSFLPDRDREEEENRLR [FAM50A], the protein stability index came out at 5.26 ± 0.11 under setting [1] and 5.49 ± 0.38 under setting [2].

For the sequence GKTYCKRDYVRLFGIKCAKCQVGF [ISL2], the protein stability index was 2.03 ± 0.19 under setting [1] and 2.17 ± 0.23 under setting [2].

Regarding GLLETEPLQGTDEDAVASADFSSM [TPD52L1], the protein stability index turned out to be 5.34 ± 0.3 under setting [1] and 5.29 ± 0.37 under setting [2].

As to GLNHSLSYDVALHRTRLQDLRVLV [SCARA5], the protein stability index reads like this: under setting [1], 2.2 ± 0.34; under setting [2], 2.13 ± 0.1.

For GLQEEPVEGFRVTLVDEGDLYNWE [CDC34], the protein stability index worked out at 4.26 ± 0.14 under setting [1] and 4.15 ± 0.34 under setting [2].

GLQVEGLRRRLEELQQELSLKDQE [LRRC45]: the protein stability index by setting is: under setting [1], 4.47 ± 0.17; under setting [2], 4.73 ± 0.16.

Consider GLSAPHSRQIPAPQGAVLVQREKD [KISS1], for which the protein stability index runs as follows: under setting [1], 5.34 ± 0.19; under setting [2], 5.19 ± 0.087.

With GLSSSSARFLSRSIPSLQSEYVHY [CDC14A], the protein stability index by setting is: under setting [1], 2.97 ± 0.53; under setting [2], 3.02 ± 0.21.

On to GLVYRLNRFRVEISFHFEVTNHNI [TRIM43], for which the protein stability index by setting is: under setting [1], 3.33 ± 0.66; under setting [2], 3.35 ± 0.8.

For the sequence GNPFLDVPQALSATTYKHGVLTRK [PSD2], the protein stability index runs as follows: under setting [1], 4.08 ± 0.3; under setting [2], 4.18 ± 0.4.

GQCGENLAWASYDQTGKEVADRWY [GLIPR2]: the protein stability index reads like this: under setting [1], 2.68 ± 0.31; under setting [2], 3.13 ± 0.26.

As for GRASRFLQSISWDPEDFEDAWKRP [TLE6], the protein stability index reads like this: under setting [1], 3.15 ± 0.21; under setting [2], 3.13 ± 0.31.

Consider GRLSMAAADIVNFLTVGSVLQMWH [ZBTB22], for which the protein stability index runs as follows: under setting [1], 3.33 ± 0.17; under setting [2], 3.4 ± 0.48.
